For five molecules, Kd results are on record in patent US20260356940 (published 2026).

Changes are numbered by the printed parent chain.

Sequences and labels used below:
B1: LB-031 (antibody, V domains shown)
VH: EVQLLESGGGLVQPGGSLRLSCAASGFTFGSYYMGWVRQAPGKGLEWVSYISGYSGYTYYADSVKGRFTISRDNSKNTLYLQMNSLRAEDTAVYYCARFSSPAGYPRMDYWGQGTLVTVSS
VL: DIQMTQSPSSLSASVGDHVTITCRASQSISSYLNWYQQKPGKAPKLLIYAASSLQSGVPSRFSGSGSGTDFTLTISSLQPEDFATYYCQQYYTLPTFGQGTKLEIK
B2: LB-116 (antibody, V domains shown)
VH: EVQLLESGGGLVQPGGSLRLSCAASGFTFSYSYMYWVRQAPGKGLEWVSSISSSGGSTSYADSVKGRFTISRDNSKNTLYLQMNSLRAEDTAVYYCARPNVDSYMDYWGQGTLVTVSS
VL: DIQMTQSPSSLSASVGDHVTITCRASQSISSYLNWYQQKPGKAPKLLIYAASSLQSGVPSRFSGSGSGTDFTLTISSLQPEDFATYYCQQSYIYLPFTFGQGTKLEIK
B3: LB-302 (antibody, V domains shown)
VH: EVQLLESGGGLVQPGGSLRLSCAASGFTFGGYGMSWVRQAPGKGLEWVSYIGYGGSYTYYADSVKGRFTISRDNSKNTLYLQMNSLRAEDTAVYYCARDGAGSYGFFDYWGQGTLVTVSS
VL: B2 VL with S91F, I93T, Y94N, L95P, P96L, F97L
B4: LB-032 (antibody, V domains shown)
VH: EVQLLESGGGLVQPGGSLRLSCAASGFTFGSYGMSWVRQAPGKGLEWVSYISYSGSYTYYADSVKGRFTISRDNSKNTLYLQMNSLRAEDTAVYYCARGADYYSVLDYWGQGTLVTVSS
VL: B2 VL with S91F, Y92S, I93T, Y94S, L95P, F97S
B5: LB-20H10 (antibody, V domains shown)
VH: QVQLQQSGAELVRPGTSVKMSCKAAGYTFTNYWIGWVKQRPGHGLEWIGDIYPGGGYTHHNEKFKGKATLTADTSSSTAYMQLSSLTSEDSAIYYCARSVLPGFAYWGQGTLVTVSA
VL: DIVMTQSHKFMSTSVGDRVSITCKASQDVNTAVAWCQQKPGQSPKLLIYSASYRFTGVPDRFTGSGSGTDFTFTISSVQAEDLAVYFCQQHYSTPYTFGGGTKLEIK

In the assay the target is T1, SLAMF6 (human, UniProt Q96DU3).
T1 chain: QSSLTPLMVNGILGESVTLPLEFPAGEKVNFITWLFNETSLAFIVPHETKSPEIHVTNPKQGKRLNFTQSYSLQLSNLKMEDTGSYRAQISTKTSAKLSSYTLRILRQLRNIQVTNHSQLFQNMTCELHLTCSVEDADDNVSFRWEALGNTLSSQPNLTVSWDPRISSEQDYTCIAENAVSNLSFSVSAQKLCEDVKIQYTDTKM
The experiment in a line: SPR. (In general: Surface plasmon resonance follows binding to a sensor surface in real time, without labels.)
Usually Kd stands for the constant that tells how readily two partners part at equilibrium. Lower therefore signals a tighter complex. For the molecule B1, binding was put at a Kd of 0.38 nM.
Molecule B2 displayed a Kd of 6 nM.
The molecule B3 showed a dissociation constant (Kd) of 16 nM.
As for B4, the figure is 12 nM.
The value for B5 was 4.1 nM.
